This data set can be described thus: total protein half-life in vivo (active degradation + dilution); higher = more stable protein.
[1] abbreviates: wild type E. coli NCM3722, growth: C-lim chemostat, doubling time 12 h.
[2] abbreviates: E. coli NCM3722 delta-clpP delta-lon delta-hslV, growth: N-lim chemostat, doubling time 6 h.
Where [3] appears, read: E. coli NCM3722 delta-hslV, growth: N-lim chemostat, doubling time 6 h.
Where [4] appears, read: E. coli NCM3722 delta-lon, growth: N-lim chemostat, doubling time 6 h.
Setting [5] is: E. coli NCM3722 delta-smpB, growth: N-lim chemostat, doubling time 6 h.
The mark [6] stands for this setting: wild type E. coli NCM3722, growth: C-lim chemostat, doubling time 3 h.
[7] abbreviates: wild type E. coli NCM3722, growth: C-lim chemostat, doubling time 6 h.
Where [8] appears, read: wild type E. coli NCM3722, growth: N-lim chemostat, doubling time 6 h.
Where [9] appears, read: wild type E. coli NCM3722, growth: N-lim chemostat, doubling time 12 h.
The mark [10] stands for this setting: wild type E. coli NCM3722, growth: P-lim chemostat, doubling time 6 h.
Where [11] appears, read: wild type E. coli NCM3722, growth: P-lim chemostat, doubling time 12 h.
Where [12] appears, read: E. coli NCM3722 delta-clpP, growth: N-lim chemostat, doubling time 6 h.

± gives the standard deviation of the averaged measurements. A value given as a limit tells only on which side of the number the result lay.

For the sequence “MAKNTSCGVQLRIRGKVQGVGFRPFVWQLAQQLNLHGDVCNDGDGVEVRLREDPETFLVQLYQHCPPLARIDSVEREPFIWSQLPTEFTIRQSTGGTMNTQIVPDAATCPACLAEMNTPGERRYRYPFINCTHCGPRFTIIRAMPYDRPFTVMAAFPLCPACDKEYRDPLDRRFHAQPVACPECGPHLEWVSHGEHAEQEAALQAAIAQLKMGKIVAIKGIGGFHLACDARNSNAVATLRARKHRPAKPLAVMLPVADGLPDAARQLLTTPAAPIVLVDKKYVPELCDDIAPDLNEVGVMLPANPLQHLLLQELQCPLVMTSGNLSGKPPAISNEQALADLQGIADGFLIHNRDIVQRMDDSVVRESGEMLRRSRGYVPDALALPPGFKNVPPVLCLGADLKNTFCLVRGEQAVLSQHLGDLSDDGIQMQWREALRLMQNIYDFTPQYVVHDAHPGYVSSQWAREMNLPTQTVLHHHAHAAACLAEHQWPLDGGDVIALTLDGIGMGENGALWGGECLRVNYRECEHLGGLPAVALPGGDLAAKQPWRNLLAQCLRFVPEWQNYSETASVQQQNWSVLARAIERGINAPLASSCGRFFDAVAAALGCAPATLSYEGEAACALEALAASCHGVTHPVTMPRVDNQLDLATFWQQWLNWQAPVNQRAWAFHDALAQGFAALMREQATMRGITTLVFSGGVIHNRLLRARLAHYLADFTLLFPQSLPAGDGGLSLGQGVIAAARWLAGEVQNG”, the “total protein half-life in vivo” value under setting [1] came to 9.74 ± 2.4 h.

Consider “MLKRLLKRPSLNLLAWLLLAAFYISICLNIAFFKQVLQALPLDSLHNVLVFLSMPVVAFSVINIVLTLSSFLWLNRPLACLFILVGAAAQYFIMTYGIVIDRSMIANIIDTTPAESYALMTPQMLLTLGFSGVLAALIACWIKIKPATSRLRSVLFRGANILVSVLLILLVAALFYKDYASLFRNNKELVKSLSPSNSIVASWSWYSHQRLANLPLVRIGEDAHRNPLMQNEKRKNLTILIVGETSRAENFSLNGYPRETNPRLAKDNVVYFPNTASCGTATAVSVPCMFSDMPREHYKEELAQHQEGVLDIIQRAGINVLWNDNDGGCKGACDRVPHQNVTALNLPDQCINGECYDEVLFHGLEEYINNLQGDGVIVLHTIGSHGPTYYNRYPPQFRKFTPTCDTNEIQTCTKEQLVNTYDNTLVYVDYIVDKAINLLKEHQDKFTTSLVYLSDHGESLGENGIYLHGLPYAIAPDSQKQVPMLLWLSEDYQKRYQVDQNCLQKQAQTQHYSQDNLFSTLLGLTGVETKYYQAADDILQTCRRVSE”, for which the “total protein half-life in vivo” value runs as follows: under setting [2], 7.04 ± 1.1 h; under setting [3], 6.05 ± 0.36 h; under setting [4], 6.41 ± 0.43 h; under setting [5], 6.19 ± 0.59 h; under setting [6], 3.22 ± 0.046 h; under setting [7], 6.12 ± 0.22 h. Besides, the “total protein half-life in vivo” value runs as follows: under setting [1], 10.7 ± 1.6 h; under setting [8], 6.42 ± 0.21 h; under setting [9], 12.3 ± 0.34 h; under setting [10], 6.03 ± 0.31 h; under setting [11], 13 ± 0.68 h.

For the sequence “MDIIFYHPTFDTQWWIEALRKAIPQARVRAWKSGDNDSADYALVWHPPVEMLAGRDLKAVFALGAGVDSILSKLQAHPEMLNPSVPLFRLEDTGMGEQMQEYAVSQVLHWFRRFDDYRIQQNSSHWQPLPEYHREDFTIGILGAGVLGSKVAQSLQTWRFPLRCWSRTRKSWPGVQSFAGREELSAFLSQCRVLINLLPNTPETVGIINQQLLEKLPDGAYLLNLARGVHVVEDDLLAALDSGKVKGAMLDVFNREPLPPESPLWQHPRVTITPHVAAITRPAEAVEYISRTIAQLEKGERVCGQVDRARGY”, the “total protein half-life in vivo” value amounted to 5.02 ± 0.051 h under setting [2]; 4.58 ± 0.51 h under setting [12]; 5.71 ± 1.3 h under setting [3]; 4.67 ± 0.34 h under setting [4]; 4.43 ± 0.24 h under setting [5]; 2.69 ± 0.43 h under setting [6]. Further, the “total protein half-life in vivo” value reads like this: under setting [7], 5.64 ± 0.55 h; under setting [1], 10.3 ± 1.4 h; under setting [8], 4.45 ± 0.25 h; under setting [9], 7.3 ± 0.49 h; under setting [10], 5.821 ± 0.027 h; under setting [11], 11 ± 0.45 h.

With “MMQPSIKPADEHSAGDIIARIGSLTRMLRDSLRELGLDQAIAEAAEAIPDARDRLYYVVQMTAQAAERALNSVEASQPHQDQMEKSAKALTQRWDDWFADPIDLADARELVTDTRQFLADVPAHTSFTNAQLLEIMMAQDFQDLTGQVIKRMMDVIQEIERQLLMVLLENIPEQESRPKRENQSLLNGPQVDTSKAGVVASQDQVDDLLDSLGF [P0A9H9]”, under setting [1], the “total protein half-life in vivo” value amounted to 2.6 h.

As for “MQFDWSAIWPAIPLLIEGAKMTLWISVLGLAGGLVIGLLAGFARTFGGWIANHVALVFIEVIRGTPIVVQVMFIYFALPMAFNDLRIDPFTAAVVTIMINSGAYIAEITRGAVLSIHKGFREAGLALGLSRWETIRYVILPLALRRMLPPLGNQWIISIKDTSLFIVIGVAELTRQGQEIIAGNFRALEIWSAVAVFYLIITLVLSFILRRLERRMKIL [P0AEQ6]”, the “total protein half-life in vivo” value by setting is: under setting [2], 7.5 ± 0.32 h; under setting [12], 5.86 ± 0.24 h; under setting [3], 6.66 ± 0.23 h; under setting [4], 5.82 ± 0.19 h; under setting [5], 6.3 ± 1.3 h; under setting [6], 3.216 ± 0.017 h. Besides, the “total protein half-life in vivo” value runs as follows: under setting [7], 6.15 ± 0.25 h; under setting [8], 6.75 ± 0.56 h; under setting [9], 11.4 ± 4.3 h; under setting [11], 13 ± 0.43 h.

With “MIFSDWPWRHWRQVRGETIALRLNDEQLNWRELCARVDELASGFAVQGVVEGSGVMLRAWNTPQTLLAWLALLQCGARVLPVNPQLPQPLLEELLPNLTLQFALVPDGENTFPALTSLHIQLVEGAHAATWQPTRLCSMTLTSGSTGLPKAAVHTYQAHLASAQGVLSLIPFGDHDDWLLSLPLFHVSGQGIMWRWLYAGARMTVRDKQPLEQMLAGCTHASLVPTQLWRLLVNRSSVSLKAVLLGGAAIPVELTEQAREQGIRCFCGYGLTEFASTVCAKEADGLADVGSPLPGREVKIVNNEVWLRAASMAEGYWRNGQLVSLVNDEGWYATRDRGEMHNGKLTIVGRLDNLFFSGGEGIQPEEVERVIAAHPAVLQVFIVPVADKEFGHRPVAVMEYDHESVDLSEWVKDKLARFQQPVRWLTLPPELKNGGIKISRQALKEWVQRQQ”, the “total protein half-life in vivo” value runs as follows: under setting [12], 4.96 h; under setting [3], 3.92 h; under setting [6], 3.2 h; under setting [7], greater than 8 h; under setting [1], 11.3 ± 1.4 h; under setting [8], 4.4 h. Besides, the “total protein half-life in vivo” value worked out at 6.327 ± 0.016 h under setting [10] and 10.3 ± 1 h under setting [11].

As for “MQGTKIRLLAGGLLMMATAGYVQADALQPDPAWQQGTLSNGLQWQVLTTPQRPSDRVEIRLLVNTGSLAESTQQSGYSHAIPRIALTQSGGLDAAQARSLWQQGIDPKRPMPPVIVSYDTTLFNLSLPNNRNDLLKEALSYLANATGKLTITPETINHALQSQDMVATWPADTKEGWWRYRLKGSTLLGHDPADPLKQPVEAEKIKDFYQKWYTPDAMTLLVVGNVDARSVVDQINKTFGELKGKRETPAPVPTLSPLRAEAVSIMTDAVRQDRLSIMWDTPWQPIRESAALLRYWRADLAREALFWHVQQALSASNSKDIGLGFDCRVLYLRAQCAINIESPNDKLNSNLNLVARELAKVRDKGLPEEEFNALVAQKKLELQKLFAAYARADTDILMGQRMRSLQNQVVDIAPEQYQKLRQDFLNSLTVEMLNQDLRQQLSNDMALILLQPKGEPEFNMKALQAVWDQIMAPSTAAATTSVATDDVHPEVTDIPPAQ”, the “total protein half-life in vivo” value runs as follows: under setting [2], 5.67 ± 0.23 h; under setting [12], 6.56 ± 1.4 h; under setting [3], 6.33 ± 0.55 h; under setting [5], 6.16 ± 0.15 h; under setting [6], 3.02 ± 0.35 h; under setting [7], 6.42 ± 0.41 h. Besides, the “total protein half-life in vivo” value under setting [1] turned out to be 9.83 ± 0.8 h; the “total protein half-life in vivo” value under setting [8] came out at 6.08 ± 0.24 h; the “total protein half-life in vivo” value under setting [9] stood at 12.55 ± 0.063 h; the “total protein half-life in vivo” value under setting [10] is 6.3 ± 0.32 h; the “total protein half-life in vivo” value under setting [11] is 14.2 ± 0.33 h.

The record behind these values is the supplement of paper PMC11246515.
